Experimental data from article PMC10955559.

Assays:
Assay in all cases: purified protein
Conditions in all cases: 100 mM sodium acetate, pH 5.5, 37 °C, 30 min, no added calcium
purified protein [1] = substrate: OC[C@H]1O[C@@](CO)(O[C@H]2O[C@H](CO)[C@@H](O)[C@H](O)[C@H]2O)[C@@H](O)[C@@H]1O; format: biochemical, Anopheles gambiae
purified protein [2] = substrate: OC[C@H]1O[C@@](CO)(O[C@H]2O[C@H](CO)[C@@H](O)[C@H](O)[C@H]2O)[C@@H](O)[C@@H]1O; format: biochemical, Aedes aegypti
purified protein [3] = substrate: OC[C@H]1O[C@@](CO)(O[C@H]2O[C@H](CO)[C@@H](O)[C@H](O)[C@H]2O)[C@@H](O)[C@@H]1O; format: biochemical, Culex quinquefasciatus

B1: AnGluc (Anopheles gambiae) (protein)
chain: HRPLPIRKAHKFDWWERGNFYQIYPRSFKDSDGDGIGDLKGITQTIDYLKTIGIDGVWLSPIFKSPMNDFGYDISDFYAIQEEYGTMEDFEELAAKCASIGLKLILDFVPNHSSDEHEHFRLSEEGIEPYKDYYIWHSGVLDANGTRHPPSNWISVFRGSAWQWSDKRQQYYLHQFQKKQPDLNYRNPALVEEMKNVMRFWLNKGIAGFRIDALPYLFESEEVDGHYRDEPLSGQATDDPDNPAYLTHTETKDQPETYDMVHQWRQVVDEYTARDNFTRIILTEAYTAVQNMTRFYGTPAAPGAQIPFNFQLITLLTVNSTGRDFVNAVQSWTRAMPSGAIANWVLGNHDNSRIASRLGVARADLYNIALQTLPGIAVTYYGEEIAMVDQWISWNDTIDPAACNADPATYELYSRDPVRTPFQWSNGTNAGFSNASRTWLPVADGYRELNVAAQLAAPRSHLKTFMQLTAYRKRRLLAEGNFVLRTVGRDLVMYKRSVPGVGYVVVALNFGPEPATLPVASQFPGTGEHWLKVIASSLQAQPQAGTWINTRLYKLAPDSGIVLERLTGRNDLMT
Purified protein [1]
  Km: 20.4 ± 7.4 mM
  Vmax: 740 µM/min
  kcat: 815 ± 60 s⁻¹
  kcat/Km: 40000 ± 2920 M⁻¹ s⁻¹

B2: AeGluc (Aedes aegypti) (protein)
chain: LDWWEHGNFYQVYPRSFKDSDGDGIGDLDGVTEKLKYLKDIGMDGVWLSPIFSSPMADFGYDISNFREIQTEYGDLDAFQRLSDKCKQLGLHLILDFVPNHTSDQHEYFKKSVQKDETYKDFYVWHPGVHGPNNTKVPPSNWISVFRGSSWEWNEERQEFYLHQFLKEQPDLNYRNPAVVEEMKNVLRYWLDRGVSGFRIDAVPYLFESDIIDGRYRNEPESRTTDDPENPAYLVHTQTMDQPETYDMIYQWRAVLDEYSKTDNRTRIMMTEGYTSLPKIIEFFGNATANGAQIPFNFEVISNVKKNSTGADFATYVKRWLDAKPANRRSNWVLGNHDNNRLGSRLGENKIDLYNIALQTLPDIAVTYYGEEIGMLDQWIPWNETVDPAACRSDEASYSAYSRDPARTPMQWDSGKNAGFSKAAKTWLPVADNYKTLNVKIQDRARKSHLKIFKKLTKYRKRQILTEGDIDIKVSGENLLVYKRKVDKVGYVVVALNFGTEPVALGLSSLFDRADQRMQVVVSSNRVSTPDNVWVDVDNYVLIGESGIVLQYLWGKNPIVS
Purified protein [2]
  Km: 47.6 ± 16.3 mM
  Vmax: 740 µM/min
  kcat: 805 ± 66.7 s⁻¹
  kcat/Km: 16900 ± 1380 M⁻¹ s⁻¹

B3: CxGluc (Culex quinquefasciatus) (protein)
chain: LQWWEHGNFYQVYPRSFKDSDGNGIGDLDGVTEKLQYLKDVGMDGIWLSPIFASPMADFGYDISDFYNIQGEYGDLAAFERLSAKCKELGLRLILDFVPNHTSNQHEYFKKSVQKEDPYTNYYVWHPGVTNEDGTKSPPSNWISVFRGSAWEWNEDRQEYYLHQFLKEQPDLNYRDPALVEEMKNVLKFWLNKGVSGFRIDAVPYLFESVEVENRYVDEPLSRATDDAENPAYLIHNQTMDQPETYDMIYQWRAVLDEFTAKDNQTRIMMTEGYTSIPNVMKFFGEGEQNGAQIPFNFQMISNLRKTSTAADFARYANLWLDNLPAGRRSNWVLGNHDNNRIGSRLGEAKIDLYNIALQTLPDIAVTYYGEEIGMVDQPIPFNETVDPAGLRAGPDDYTLYSRDPARTPMQWNSDKNAGFSSADKTWLPVATNYKQLNVKAQDAAQKSHLKLFKRLTTYRKRQILTHGDLDLRTTDSNLVLYKRKVDKVGYVVVVLNFSDEPQSLAAIKQQFPGADDRLQVVASSKLVTIKDNKWINVADTELPGESAIVLQKLWGPNPVVVYEA
Purified protein [3]
  Km: 40.1 ± 15.1 mM
  Vmax: 690 µM/min
  kcat: 750 ± 75 s⁻¹
  kcat/Km: 18700 ± 1850 M⁻¹ s⁻¹
